Patent publication US20210380722A1, “COMPOSITIONS AND METHODS FOR THE TREATMENT OF MAJOR DEPRESSIVE DISORDER” (Snake River Bioscience, Inc., priority 2019, published 2021)

Tests used:
[1] = tested on: healthy wildtype mice injected with blood plasma from stressed mice; experiment: blood plasma from stressed mice treated in vitro, injected i.v. into healthy wildtype mice; format: in vivo; details: plasma from stressed mice incubated in vitro with agent, 125 μL i.v. into non-stressed mice, 24 h later; FIGS. 3a, 3b
Experimental: Corticosterone (Sigma, St. Louis, Mo.) was administered to mice via the drinking water at 120 mg/L for 7 days. In the chronic unpredictable stress model (CUS), the mice were challenged with unpredictable environmental stress for 8 days, i.e., a reversal of the light/dark cycle, 3 h of 45° tilting of the cage twice each week, shaking at 125 rpm, food deprivation for 14 h, predator sounds (15 min) or wet cages (1 h) with two forms of stress per day in a randomized (unpredictable) order. Blood was collected from the heart into heparin-coated needles and tubes immediately after sacrifice by cervical dislocation. Blood plasma was centrifuged at 3500 rpm for 5 min at 4° C. in an Eppendorf centrifuge. […]
(§1) Behavioral testing was performed between 3:00 p.m. and 6:00 p.m. under diffuse indirect room light. […] The time was recorded during which the mice explored a new environment before they began eating. […] The time that the mouse spent in each of the separate compartments was recorded. […] In the coat state test, the appearance of the coat (groomed vs unkempt coat) was scored on the head, neck, back, and ventrum with either a zero for normal status or a 1 for unkempt status. […] After 24 h the mice were again placed in a water-filled cylinder for 6 min, and the time of mobility or immobility during the last 4 min of the second trial was recorded. […]

[2] = tested on: untreated wildtype mice injected with exosomes purified from stressed mice; experiment: exosomes from stressed mice incubated ex vivo, injected i.v. into untreated wildtype mice; format: in vivo; details: exosomes from stressed mice incubated 60 min ex vivo with agent, within 24 h, FIGS. 3c, 3d
Experimental: To achieve in vitro neutralization of consumption of ceramide, 125 μL blood plasma or exosomes (purified from 150 μL blood plasma as described below) were incubated with 0.5 μg purified IgM anti-ceramide antibodies, 0.5 μg control IgM or 1 μg recombinant neutral ceramidase.
To isolate exosomes from blood plasma, samples were centrifuged at 16,500×g for 20 min. The supernatant was then passed through a 0.22-μm filter and exosomes were harvested by centrifugation twice at 100,000×g for 70 min. The final pellet was resuspended in phosphate-buffered saline (PBS). Exosomes were pelleted by centrifugation at 100,000×g for 70 min, the supernatant was discarded, and the exosomes were resuspended and injected i.v. into healthy mice. […]
as §1

[3] = Asah2, R&D; cited from earlier work
[4] = tested on: mice stressed with glucocorticosterone or chronic unpredictable environmental stress (CUS); experiment: i.v. treatment of stressed mice with anti-ceramide antibodies or neutral ceramidase; behavior and neurogenesis; format: in vivo; details: mice stressed 6 days with glucocorticosterone or CUS
[5] = tested on: healthy mice injected with exosomes from patients with MDD; experiment: exosomes from blood plasma of MDD patients treated in vitro, injected into healthy mice; format: in vivo; details: human exosomes preincubated with agent, 24 h after injection, FIGS. 5a, 5b
Experimental: Depressive patients (7 women, 10 men) aged >60 years (mean age=71.1 years, SD=4.7) were recruited at the Psychiatric University Hospital, Basel, Switzerland. […] For comparison, 9 healthy individuals without history of depression (mean age=70.9 years, SD=5.3) were included in the study. The study was approved by the “Ethikkommission der Nordwest—und Zentralschweiz” (EKNZ; No. 2015-148) and all participants provided written informed consent. […]
as §1
Exosomes were isolated from 150 μL blood plasma from patients with major depressive disorder (MDD), and from healthy control subjects. […] Behavior (FIG. 5a) and neurogenesis (FIG. 5b) were determined to measure the occurrence of MDD in mice after injection of human exosomes from depressed patients. […]

B1: recombinant neutral ceramidase: recombinant neutral ceramidase (Asah2, R&D, 3,000 pmol/min/μg), consumes plasma ceramide (protein, UniProt Q9JHE3 1-756, looked up)
Neutral ceramidase: MAKRTFSTLEAFLIFLLVIMTVITVALLTLLFVTSGTIENHKDSGNHWFSTTLGSTTTQPPPITQTPNFPSFRNFSGYYIGVGRADCTGQVSDINLMGYGKNGQNARGLLTRLFSRAFILADPDGSNRMAFVSVELCMISQRLRLEVLKRLESKYGSLYRRDNVILSAIHTHSGPAGFFQYTLYILASEGFSNRTFQYIVSGIMKSIDIAHTNLKPGKIFINKGNVANVQINRSPSSYLLNPQSERARYSSNTDKEMLVLKLVDLNGEDLGLISWFAIHPVSMNNSNHFVNSDNMGYAAYLFEQEKNKGYLPGQGPFVAGFASSNLGDVSPNILGPHCVNTGESCDNDKSTCPNGGPSMCMASGPGQDMFESTHIIGRIIYQKAKELYASASQEVTGPVLAAHQWVNMTDVSVQLNATHTVKTCKPALGYSFAAGTIDGVSGLNITQGTTEGDPFWDTLRDQLLGKPSEEIVECQKPKPILLHSGELTIPHPWQPDIVDVQIVTVGSLAIAAIPGELTTMSGRRFREAIKKEFALYGMKDMTVVIAGLSNVYTHYITTYEEYQAQRYEAASTIYGPHTLSAYIQLFRDLAKAIATDTVANMSSGPEPPFFKNLIASLIPNIADRAPIGKHFGDVLQPAKPEYRVGEVVEVIFVGANPKNSAENQTHQTFLTVEKYEDSVADWQIMYNDASWETRFYWHKGILGLSNATIYWHIPDTAYPGIYRIRYFGHNRKQELLKPAVILAFEGISSPFEVVTT
- development of MDD (behavioral changes and neurogenesis in the hippocampus) [1]: prevented the development of MDD
- development of MDD (behavior parameters and neuronal proliferation) [2]: prevented development of MDD
- activity of recombinant neutral ceramidase [3]: 3,000 pmol/min/μg
- neurogenesis in the hippocampus (BrdU-positive cells) ([4]; 24 h after first i.v. injection, FIG. 2b): normalized neurogenesis
- behavioral signs of major depression (light/dark box, latency to feed, time in center, splash test, forced swim test, coat test) ([4]; i.v. injection 24 h and 12 h before analysis, FIG. 2a): abrogated behavioral signs of major depression in stressed mice
- depressed behavior and reduced neurogenesis induced by exosomes from depressed patients [5]: prevented their effects on mice
